From the nanobody polyreactivity screen of Harvey et al. (2022)

Assay: yeast display, Sf9 membrane polyspecificity reagent, FACS + sequencing; frameworks hold sequencing errors
Method in brief: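 A nanobody's polyreactivity label depends on the gate it was sorted from. Yeast display cells were stained with 10% biotinylated, detergent-solubilized Sf9 membrane reagent for 1 hour at 4 °C, enriched on streptavidin microbeads and sorted by FACS. The low and high (top ~1%) gates were set on anti-HA fluorescence for expression and streptavidin fluorescence for reagent binding.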

Sequence | polyreactivity (PSR sort gate)
QVQLVESGIGLVQAGGSLSLSCAASGFNLDTYGMGWYRQAPGKERELVAAISQSDVSTYYADSVKGRFTISRDNAKNTVYLQMNSLKPEDTAVYYCAADRGGLRWFWQVLYEYWGQGTQVTVSS | low polyreactivity
QVQLVESGLGLVQAGGSLRISCAASGRIFYYNAMGWYRQAPGKERELVARIRRSGGRTYYADSVKGRFTISRDNAKNTVYLLMNSLKPADTAVYYCAARRQGRSGNGSWGQGTQVTVSW | high polyreactivity
QVQLVESGLGLVQEGGCLRVSCAASGSIFSHYAMGWDSQAPGKDREVVAAITGGGITYYADSVKGRFTISRDNAKNTVYLQMNSLIPEDTAVYYWATDSLIFTIFDYSGQGTQVTVSS | low polyreactivity
QVQLVESGPGLVQAGVSLRLSCAASGSIFAYYAMGWYRQAPGKERELVAAISSRGGNTYYADSVKGRFTISRHYAKNSVYLQMNSLKPEDTAVYYCAADYQYSYGEYDYWGQGTQVTVSS | high polyreactivity
QVQLVESGQGLVQAGGSLRLSCAASGFTFWGYTMGWYRQAPGKERELVAGITLSGGSTYYADSVKGRFTISRDNAKNTVYLEMNSLKPEDTAVYYCAAKPYQVSSYDFSLRDYWGQGTQVTVSS | low polyreactivity
QVQLVESGRGIVQAGGSLRLSCAASGSIFLHNAMGWYRQAPGKETELVAAITGSGGYTYYADSVKGRFTISRDNPKNTVYIQMNSRQPEDTAVYYCAACSRSRYYRYVYYQYVTMDYWGQGTQETVSS | high polyreactivity
QVQLVESGRGLFQAGGSLRLSCAPSGIIIVNYAMGWYRQAPGKERELVAAITTSGGSTYYADSVKGRFTISRDHAKNTVYLQMNSLKPEDTAVYDCAKKSSLFKHVVRYDYWGQGTQVTVSS | low polyreactivity
QVQLVESGRGLVHAGGSHRISCAASGRTFYYYAMGWYRQAPGKERELVAAITRGGSTNYADSVKGRFTISRDNAKITVYLQMNSLKPEDTAVYYCAQPWFYQNRGYDYWGQGTQVTVSS | low polyreactivity
QVQLVESGRGLVQAAGSLRLSCASSGSTYFGNTMVWYRQAPGKERELVATITRRGGTTYYADSVKGRFTISRDNAKNSVFLQMNSLKPEDTAVYYCAKRGPYTKYDYWGQGTQVTVSS | low polyreactivity
QVQLVESGRGLVQAGGSLRISCAASGSTFGYYAMGWYRQAPGKERELVAAITSTGRTKYADSVKGRFTISRDNAKNTVYLQMNSLKPEDTAVYYCAADIWGQGTQVTVSS | high polyreactivity
QVQLVESGRGLVQAGGSLRISCAPSGITFGRYVMGWYRQAPGKERELVAVISRGGSTNYADSVKGRFTIARDNAKNTDYLQMNSLKPEDSAVYYCAADEWIVHDGYYSSYYYWGQGTQVTVSS | low polyreactivity
QVQLVESGRGLVQAGGSLRLICAASGSIFFYYAMGWYRQAPGKERELVAVITSGGSTNYADSVKGRFTISRDNAKNTVYLQMNSLKPEDTAVYYCNADGYGYFTVREFLDYDYWGQGTQVTVSS | low polyreactivity
QVQLVESGRGLVQAGGSLRLSCAACGRIFYRYTMGSYRQAPGKERELVAAITRGGNTYYADSVKGRFTISRDNANYTVYLQMNSLKPEDTAVYYCAKKAPSDRNNYWGQGTQVTVSS | high polyreactivity
QVQLVESGRGLVQAGGSLRLSCAASAVSFISYAMGWYRQAPGKERELVAAISRGGSSTYYADSVKGRFTISRDNAKNTVYLQMNSLKPEDTAVYYCNKAYHRRDSEFGYSGQGTQVTVSS | high polyreactivity
QVQLVESGRGLVQAGGSLRLSCAASGFIFAYYAMGWYRQAPGKERELVAAITRSGGGTKYADSVKGRFTISRDNAKNTVYLHMNSLKPEDTAVYYCAARWYRQLRDLDYWGQGTQVTVSS | high polyreactivity
QVQLVESGRGLVQAGGSLRLSCAASGFTFGYYAMGWYRQAPGKERELVAAISASGASTYYADSVKGRFTISRDNAKNTVYLQMTSLKPEDTAVYYCAARPGQLTSPVTRTRYNYWGQGTQVTVSS | low polyreactivity

Sequence | polyreactivity (PSR sort gate)
QVQLVESGRGLVQAGGSLRLSCAASGFTFYYYANGWYRQAPGKERELVAAISIGGSTYYADSVKGRFTISRDNAKNTVYLQMNCLKPEDTAVYYCNVVFTYWPPGTARYDYWGQGTQVTVSS | high polyreactivity
QVQLVESGRGLVQAGGSLRLSCAASGFTLWIYAKGWYRQAPGKESELVAAITWSTGSTYYADSVKGRFTISRDNAKNTVYLLMNSLKPEDTAVYYCPAEFHWWYAGYDYGYWGQGTQVTVSS | low polyreactivity
QVQLVESGRGLVQAGGSLRLSCAASGFTQPANGMGWYRQAPGIERELVAAISFIAGSTYYADSVKGRFTISRDNAKNTVYLQMNSLKPEDTAVYYCATLFPPSTIYDYWGQGTQVTVSS | low polyreactivity
QVQLVESGRGLVQAGGSLRLSCAASGIIFGGYSMGWYRQAPGKERELVAAISGIGSRTYYADSVKGRFTISRDNAKNTVYLQMNSLKPEDTAVYYCNADQVYGYNYWGQGTQVTVSS | high polyreactivity
QVQLVESGRGLVQAGGSLRLSCAASGIIFYENAMGWYRQAPGKERELVADITQSGGSTYYADSVKGRFTISRDNAKNTVYLQMNSLKPEDTAVYYCAADGYDPYGGLYDYWGQGTQVTVSS | low polyreactivity
QVQLVESGRGLVQAGGSLRLSCAASGRIFRYYAMGWYRQAPGKERELVATITDGGSTSYADSVKGRFTISRDNAKNTVYLQMNSLKPEDTAVYYCARDPLPSYWKVWSRPTFDYWGQGTQVTVSS | low polyreactivity
QVQLVESGRGLVQAGGSLRLSCAASGRIFTHYAMGWYRQAPGKERELVAAITSSSGSTYYADSVKGRFTISRDNAKNTVYLPMISLKPEDTAVYYCAASRYGKNGKFHYWGQGTQVTVSS | high polyreactivity
QVQLVESGRGLVQAGGSLRLSCAASGRIFVSNVMGWYRQAPGKERELVATITIGGITYYADSVKGRFTISRDNAKNTVYLQMNSLKPEDTAVYYCAADRRRFSPYGLYIHPGFDYWGQGTQVTVSS | low polyreactivity
QVQLVESGRGLVQAGGSLRLSCAASGRTFDPYAMGWYRQAPGKERELVAAITSGDDTYYADSVKGRFTISRDYAKNTVYLQMNSLKPEHTAVYYCAADSFTPDYYYHDYWGQGTQVRVSS | low polyreactivity
QVQLVESGRGLVQAGGSLRLSCAASGRTFVYYAMGWYRQAPGKERELVAAISRSGSTYYADSVKGRFTISRDNAKNTVYLQMNSLKPEDTAVYYCARPGGPDRTSSPYPYPYGYWGQGTQVTVSS | low polyreactivity
QVQLVESGRGLVQAGGSLRLSCAASGSIFKNYAMGWYRQAPGKERELVAAITRGTYYADSVKGRFTISRDNAKNTVYLQMNSLKPEDTAVYDCYREYWGRGYYRVRGEYDYWGQGTQVTVSS | low polyreactivity
QVQLVESGRGLVQAGGSLRLSCAASGSIFSYYAMGWYIQAPGKERELVAAITVRGGSTYYADSVKGRFTISRDNAKNTVYLQMNSLKPEDTAVYYCAAVPGYTHLWGGPFDYWGQGTQVTVSS | low polyreactivity
QVQLVESGRGLVQAGGSLRLSCAASGSILTYYTMGWYRQAPGKERELVAAITRRGGSTYYADSVKGRFTISRDNAKNTVYLQMNRLKPEDTAVYYCNRVLSYHRHKLGMGYWGQGTHVTVSS | high polyreactivity
QVQLVESGRGLVQAGGSLRLSCAASGSTFAGYVMGWYRQAPGKERELVAAISGRGGNTYYADSVKGRFTISRDNAKNTVYIQINSLKPADTAVYYCAANLSRRYGYWGQGTQVTVSS | high polyreactivity
QVQLVESGRGLVQAGGSLRLSCAASGSTFWNNGMGWYRQAPGKERELVAAINWSGDSTYYADSVKGRFTISRDNAKNTVYLQMNSLKPEDTAVYYCAAGYYTYSRRSSFFVAYGYWGQGTQVTVSS | low polyreactivity
